Assay results from patent publication US20220143148A1, “COMPOSITIONS AND METHODS FOR MODULATING CGRP SIGNALING TO REGULATE INTESTINAL INNATE LYMPHOID CELLS” (The Broad Institute, Inc., priority 2019, published 2022).

Tested on: small intestinal immune cells
Experiment: Droplet-based scRNA-seq of small intestinal immune cells (LP and PP), OVA vs PBS, clustering and differential expression
Format: in vivo, mouse
Settings: cluster ID 12, LP; for LN (average fold change): OVA vs PBS
Text: To comprehensively characterize small intestinal immune cells, Applicants generated scRNA-Seq profiles for 58,067 immune cells collected from lamina propria (LP) and Peyer's patch (PP) regions at steady state and after induction of a type 2 inflammatory reaction to ovalbumin (OVA) (Brandt et al., 2003) (FIGS. 1A and 8A). To ensure sufficient representation of rare cells, Applicants combined a normalization strategy—removing by flow sorting either a portion of IgD+ naïve B cells, which are the most abundant cell type in PPs, or all CD19+ and CD3+ T cells (FIG. 8B, Methods)—with profiling of a sufficiently large number of cells number (P>0.99 to recover at least 15 cells from each cluster, Methods) by massively parallel scRNA-seq (Haber et al., 2017) (Methods). Applicants obtained 36,797 and 21,270 high quality cells passing initial filtering (Methods) from PP and LP regions, respectively.
Overall, Applicants annotated 27 cell subsets across the two compartments, spanning T cells, B cells, ILCs, dendritic cells (DCs), myeloid cells and stromal cells, in frequencies ranging from 0.07% to 14%. Briefly, Applicants first partitioned the cells from the PP regions by unsupervised clustering (Methods) into 46 clusters, retained the 97% of cells that were robustly assigned cell identities in each cluster (Methods), assigned the cells from the LP regions to the 46 clusters using a classifier (Methods), and visualized the data with scvis (Ding et al., 2018), a deep generative model-based method (FIGS. 1B and 8C, Methods). Next, Applicants identified genes that were differentially expressed between the cells in each cluster and the remaining cells (Table 1, Methods), as well as between pairs of clusters (Table 2), to elucidate identities of similar cell types/states. Applicants excluded from downstream analysis clusters mostly consisting of contaminants from epithelium, likely doublets, or cells with a small number of Unique Molecular Identifiers (UMIs) (FIGS. 1C and 8D), or lacking distinct markers (Methods). Altogether, Applicants retained 27 clusters spanning 85% of the cells and each associated with distinct marker genes (FIG. 8E, Methods).
To induce allergic reaction to OVA, 6 to 7 weeks old mice were sensitized twice, two weeks apart, with 50 μg of OVA plus 1 mg of aluminum potassium sulfate adjuvant via intraperitoneal injection. Two weeks later, mice were orally administered with 50 mg of OVA on every other day for a total of five times. 1 μg of α-CGRP peptide was administered simultaneously when indicated. Mice were deprived of food for 3-4 hours in cages with wood chip bedding for limiting antigen degradation in the stomach before each intragastric challenge.
Isolation of cells from Peyer's patches (PPs). Peyer's patches (PPs) were carefully dissected from the small intestine under a stereo microscope using a fine scissor, pierced once with a fine forcep. Tissues were digested in freshly made digestion buffer (RPMI-1640 containing 100 μg/ml Liberase™ and 50 μg/ml DNase I at 37° C. on a roto-mixer. After 15 min, tissues were very gently mixed using a 1 ml pipette. The supernatant was collected and added to ice-cold MACS buffer (pH 7.4; PBS plus 2% FCS and 2 mM EDTA). Pre-warmed (37° C.) fresh digestion buffer was added to the remaining tissues. After rotation at 37° C. for 15 min, the mixture was vigorously mixed using a 1 ml pipette for 1 min. Supernatants from the two steps were combined and passed through 70 μm filters and stained for FACS (below).
Isolation of cells from the lamina propria (LP). The small intestines were opened longitudinally and washed in ice-cold PBS. For scRNA-seq, roughly 0.5 cm of fragments from each of the distal, middle and proximal regions without visible PPs were collected. Epithelial cells were dissociated by tissue rotation in pre-warmed (37° C.) PBS containing 10 mM EDTA at 37° C. for 15 min, followed by additional incubation on ice for 15 min. Tissues were then shaken vigorously. […]

B1: OVA (protein, UniProt P01012 2-386, looked up)
Ovalbumin: GSIGAASMEFCFDVFKELKVHHANENIFYCPIAIMSALAMVYLGAKDSTRTQINKVVRFDKLPGFGDSIEAQCGTSVNVHSSLRDILNQITKPNDVYSFSLASRLYAEERYPILPEYLQCVKELYRGGLEPINFQTAADQARELINSWVESQTNGIIRNVLQPSSVDSQTAMVLVNAIVFKGLWEKAFKDEDTQAMPFRVTEQESKPVQMMYQIGLFRVASMASEKMKILELPFASGTMSMLVLLPDEVSGLEQLESIINFEKLTEWTSSNVMEERKIKVYLPRMKMEEKYNLTSVLMAMGITDVFSSSANLSGISSAESLKISQAVHAAHAEINEAGREVVGSAEAGVDAASVSEEFRADHPFLFCIKHIATNAVLFFGRCVSP
Gene Ero1l
  percentage of expressing cells in OVA-treated group: 0.399
  LN (average fold change): 0.949
Gene Fgl2
  percentage of expressing cells in OVA-treated group: 0.61
  LN (average fold change): 0.609
Gene Fth1
  percentage of expressing cells in OVA-treated group: 0.963
  LN (average fold change): −0.236
Gene Fxyd5
  percentage of expressing cells in OVA-treated group: 0.564
  LN (average fold change): 0.407
Gene Galnt12
  percentage of expressing cells in OVA-treated group: 0.086
  LN (average fold change): −0.960
Gene Gapdh
  percentage of expressing cells in OVA-treated group: 0.561
  LN (average fold change): 0.420
Gene Gimap5
  percentage of expressing cells in OVA-treated group: 0.338
  LN (average fold change): 0.779
Gene Glul
  percentage of expressing cells in OVA-treated group: 0.184
  LN (average fold change): −1.009
Gene Gmfg
  percentage of expressing cells in OVA-treated group: 0.31
  LN (average fold change): 0.821
Gene Gpr132
  percentage of expressing cells in OVA-treated group: 0.399
  LN (average fold change): −0.573
Gene Gpx4
  percentage of expressing cells in OVA-treated group: 0.818
  LN (average fold change): −0.345
Gene H2-Q4
  percentage of expressing cells in OVA-treated group: 0.246
  LN (average fold change): −0.675
Gene H2afj
  percentage of expressing cells in OVA-treated group: 0.433
  LN (average fold change): 0.452
Gene H3f3b
  percentage of expressing cells in OVA-treated group: 0.982
  LN (average fold change): 0.286
Gene Hccs
  percentage of expressing cells in OVA-treated group: 0.243
  LN (average fold change): 1.079
Gene Hmgb1
  percentage of expressing cells in OVA-treated group: 0.552
  LN (average fold change): −0.400
Gene Igha
  percentage of expressing cells in OVA-treated group: 0.951
  LN (average fold change): 0.407
Gene Igkc
  percentage of expressing cells in OVA-treated group: 0.985
  LN (average fold change): 0.474
Gene Iglc1
  percentage of expressing cells in OVA-treated group: 0.184
  LN (average fold change): −0.692
Gene Irf1
  percentage of expressing cells in OVA-treated group: 0.069
  LN (average fold change): −1.336
Gene Itk
  percentage of expressing cells in OVA-treated group: 0.515
  LN (average fold change): 0.495
Gene Jarid2
  percentage of expressing cells in OVA-treated group: 0.156
  LN (average fold change): 1.269
Gene Kdm6b
  percentage of expressing cells in OVA-treated group: 0.65
  LN (average fold change): 0.555
Gene Kif23
  percentage of expressing cells in OVA-treated group: 0.102
  LN (average fold change): −1.129
Gene Klf4
  percentage of expressing cells in OVA-treated group: 0.336
  LN (average fold change): −0.566
Gene Lmna
  percentage of expressing cells in OVA-treated group: 0.045
  LN (average fold change): −1.627
Gene Ly6a
  percentage of expressing cells in OVA-treated group: 0.055
  LN (average fold change): −1.208
Gene Maff
  percentage of expressing cells in OVA-treated group: 0.399
  LN (average fold change): −0.518
Gene Mat2a
  percentage of expressing cells in OVA-treated group: 0.288
  LN (average fold change): −0.572
Gene Naca
  percentage of expressing cells in OVA-treated group: 0.839
  LN (average fold change): 0.299
Gene Ndfip1
  percentage of expressing cells in OVA-treated group: 0.247
  LN (average fold change): 0.765
Gene Neurl3
  percentage of expressing cells in OVA-treated group: 0.328
  LN (average fold change): −0.470
Gene Nfkb1
  percentage of expressing cells in OVA-treated group: 0.81
  LN (average fold change): 0.501
Gene Nr4a2
  percentage of expressing cells in OVA-treated group: 0.383
  LN (average fold change): 0.702
Gene Nrgn
  percentage of expressing cells in OVA-treated group: 0.284
  LN (average fold change): 1.042
Gene Nxpe3
  percentage of expressing cells in OVA-treated group: 0.202
  LN (average fold change): 0.974
Gene Pfn1
  percentage of expressing cells in OVA-treated group: 0.974
  LN (average fold change): 0.233
Gene Pgm2l1
  percentage of expressing cells in OVA-treated group: 0.065
  LN (average fold change): −0.966
Gene Pnrc1
  percentage of expressing cells in OVA-treated group: 0.583
  LN (average fold change): −0.457
Gene Pole4
  percentage of expressing cells in OVA-treated group: 0.604
  LN (average fold change): 0.415
Gene Polr2e
  percentage of expressing cells in OVA-treated group: 0.091
  LN (average fold change): −1.019
Gene Prdx6
  percentage of expressing cells in OVA-treated group: 0.507
  LN (average fold change): 0.908
Gene Psap
  percentage of expressing cells in OVA-treated group: 0.299
  LN (average fold change): −0.562
Gene Psmb8
  percentage of expressing cells in OVA-treated group: 0.49
  LN (average fold change): −0.441
Gene Psmb10
  percentage of expressing cells in OVA-treated group: 0.219
  LN (average fold change): −0.598
Gene Ptp4a1
  percentage of expressing cells in OVA-treated group: 0.349
  LN (average fold change): −0.514
Gene Ramp3
  percentage of expressing cells in OVA-treated group: 0.561
  LN (average fold change): 0.516
Gene Rheb
  percentage of expressing cells in OVA-treated group: 0.536
  LN (average fold change): 0.631
Gene Rnf19b
  percentage of expressing cells in OVA-treated group: 0.279
  LN (average fold change): 0.971
Gene Rsrp1
  percentage of expressing cells in OVA-treated group: 0.24
  LN (average fold change): −0.708
Gene Saraf
  percentage of expressing cells in OVA-treated group: 0.304
  LN (average fold change): −0.533
Gene Scp2
  percentage of expressing cells in OVA-treated group: 0.382
  LN (average fold change): −0.568
Gene Sepp1
  percentage of expressing cells in OVA-treated group: 0.254
  LN (average fold change): −0.824
Gene Serp1
  percentage of expressing cells in OVA-treated group: 0.554
  LN (average fold change): −0.529
Gene Srsf7
  percentage of expressing cells in OVA-treated group: 0.251
  LN (average fold change): −0.443
Gene Tgfb1
  percentage of expressing cells in OVA-treated group: 0.457
  LN (average fold change): 0.625
Gene Tgoln1
  percentage of expressing cells in OVA-treated group: 0.215
  LN (average fold change): −0.572
Gene Tiparp
  percentage of expressing cells in OVA-treated group: 0.18
  LN (average fold change): −0.904
Gene Tmem64
  percentage of expressing cells in OVA-treated group: 0.41
  LN (average fold change): 0.605
Gene Tmsb4x
  percentage of expressing cells in OVA-treated group: 1
  LN (average fold change): 0.195
Gene Tmsb10
  percentage of expressing cells in OVA-treated group: 0.942
  LN (average fold change): −0.240
Gene Tnfaip3
  percentage of expressing cells in OVA-treated group: 0.534
  LN (average fold change): −0.487
Gene Tnfaip8
  percentage of expressing cells in OVA-treated group: 0.518
  LN (average fold change): 0.740
Gene Tpm4
  percentage of expressing cells in OVA-treated group: 0.394
  LN (average fold change): 0.964
Gene Tspan13
  percentage of expressing cells in OVA-treated group: 0.699
  LN (average fold change): −0.366
Gene Tspan32
  percentage of expressing cells in OVA-treated group: 0.073
  LN (average fold change): −0.997
Gene Ubc
  percentage of expressing cells in OVA-treated group: 0.303
  LN (average fold change): −0.542
Gene Ucp2
  percentage of expressing cells in OVA-treated group: 0.612
  LN (average fold change): 0.519
Gene Uhrf2
  percentage of expressing cells in OVA-treated group: 0.296
  LN (average fold change): −0.506
Gene Uqcrh
  percentage of expressing cells in OVA-treated group: 0.765
  LN (average fold change): 0.450
Gene Usmg5
  percentage of expressing cells in OVA-treated group: 0.509
  LN (average fold change): −0.414
Gene Vmp1
  percentage of expressing cells in OVA-treated group: 0.239
  LN (average fold change): 1.019
Gene Zc3h12a
  percentage of expressing cells in OVA-treated group: 0.157
  LN (average fold change): −0.866
Gene Zfp36l2
  percentage of expressing cells in OVA-treated group: 0.49
  LN (average fold change): 0.453
Gene Zrsr1
  percentage of expressing cells in OVA-treated group: 0.242
  LN (average fold change): −0.652
